# Test results published in the RNAGym collection of RNA variant scans (doi:10.7554/elife.80360).
# B1: Hairpin Ribozyme (parent)
# chain: GUCCUCUUUCACGUGCGCGUGAAAGAGAGAAGUGAACCAGAGAAACACACGUUGUGGUAUAUUACCUGGUA
# Variants of: B1
# Assay: self-cleavage, relative activity (ratio to wild type); higher = more cleavage; co-transcriptional
row,Variant,self-cleavage
1,GUGCUCUUUCACGUGCGCGUGAAAGAGAGAAGUGAACCAGAGAAACACACGGUGUGGUAUAUUACCUGGUA,0.212
2,GUGCUCUUUCACGUGCGCGUGAAAGAGAGAAGUGAACCAGAGAAACACACGUAGUGGUAUAUUACCUGGUA,0.212
3,GUGCUCUUUCACGUGCGCGUGAAAGAGAGAAGUGAACCAGAGAAACACACUUUGUGGUAUAUUACCUGGUA,0.342
4,GUGCUCUUUCACGUGCGCGUGAAAGAGAGAAGUGAACCAGAGAAACACACGUUGUGGUAUAAUACCUGGUA,0.107
5,GUGCUCUUUCACGUGCGCGUGAAAGAGAGAAGUGAACCAGAGAAACACACGUUGUGGUAUAGUACCUGGUA,0.128
6,GUGCUCUUUCACGUGCGCGUGAAAGAGAGAAAUGAACCAGAGAAACACACGUUGUGGUAUAUUACCUGGUA,0.0849
7,GUUCUGUUUCACGUGCGCGUGAAAGAGAGAAGUGAACCAGAGAAACACACGUUGUGGUAUAUUACCUGGUA,0.288
8,GUUCUCUUUCACGUGCGCGUGUAAGAGAGAAGUGAACCAGAGAAACACACGUUGUGGUAUAUUACCUGGUA,0.395
9,GUGCUCUUUCACGUGCGCGUGAAAGAGAGAAGUGAACCAGAGAAACACACGUUGUGGUAUAUUACCUUGUA,0.102
10,GUUCUCUUUCACGUGCGCGUGAAAGAGAGAAGUGACCCAGAGAAACACACGUUGUGGUAUAUUACCUGGUA,0.369
11,GUUCUCUUUCACGUGCGCGUGAAAGAGAGAAGUGAACCAGAGUAACACACGUUGUGGUAUAUUACCUGGUA,0.207
12,GUUCUCUUUCACGUGCGCGUGAAAGCGAGAAGUGAACCAGAGAAACACACGUUGUGGUAUAUUACCUGGUA,0.314
13,GUUCUCUUUCCCGUGCGCGUGAAAGAGAGAAGUGAACCAGAGAAACACACGUUGUGGUAUAUUACCUGGUA,0.402
14,GUUCUCUUUCGCGUGCGCGUGAAAGAGAGAAGUGAACCAGAGAAACACACGUUGUGGUAUAUUACCUGGUA,0.338
15,GUGCUCUUACACGUGCGCGUGAAAGAGAGAAGUGAACCAGAGAAACACACGUUGUGGUAUAUUACCUGGUA,0.112
16,GUGCUCUUUCACGUUCGCGUGAAAGAGAGAAGUGAACCAGAGAAACACACGUUGUGGUAUAUUACCUGGUA,0.29
17,GUUCUCUUUCAGGUGCGCGUGAAAGAGAGAAGUGAACCAGAGAAACACACGUUGUGGUAUAUUACCUGGUA,0.471
18,GUUCUCUUUCAAGUGCGCGUGAAAGAGAGAAGUGAACCAGAGAAACACACGUUGUGGUAUAUUACCUGGUA,0.546
19,GUGCUCUUUCACGUGCGCGUGAAAGAGAGAAGUGAACCAGAGAAAGACACGUUGUGGUAUAUUACCUGGUA,0.0681
20,GUGCUCUUUCACGUGCGCGUGAAAGAGAGAAGUGAACCAGAGAAACACACGUUGUGGUAUAUUACCUGGUG,0.308
21,GUGCUCUUUCACGUGCGCGAGAAAGAGAGAAGUGAACCAGAGAAACACACGUUGUGGUAUAUUACCUGGUA,0.222
22,GUGCUCUGUCACGUGCGCGUGAAAGAGAGAAGUGAACCAGAGAAACACACGUUGUGGUAUAUUACCUGGUA,0.204
23,GUGCUCUUUCACGUGAGCGUGAAAGAGAGAAGUGAACCAGAGAAACACACGUUGUGGUAUAUUACCUGGUA,0.324
24,GUUCUCUUUCACGUGCGCGUGAAAGAGAGAAGUGAACCAGAGAAACACGCGUUGUGGUAUAUUACCUGGUA,0.409
25,GUUCUCUUUCACGUGCGCGUGAAAGAGAGAAGUGAACCAGAGAAACACCCGUUGUGGUAUAUUACCUGGUA,0.112
26,GUUCUCUUUCACGUGCGCGUGAAAGAGAGAAGUGAACCAGCGAAACACACGUUGUGGUAUAUUACCUGGUA,0.983

row,Variant,self-cleavage
1,GUUCUCUUUCACGUGCGCGUGAAAGAGAGAAGUGAACCAGGGAAACACACGUUGUGGUAUAUUACCUGGUA,0.643
2,GUGAUCUUUCACGUGCGCGUGAAAGAGAGAAGUGAACCAGAGAAACACACGUUGUGGUAUAUUACCUGGUA,0.185
3,GUGCUCUUUCACGUGCGCGUGAAAGAGAGAAGUGAACCAGAGAAACACACGUUGAGGUAUAUUACCUGGUA,0.0814
4,GUGCUCUUUCACGUGCGCGUGAAAGAGAGAAGUGAACCAGAAAAACACACGUUGUGGUAUAUUACCUGGUA,0.0837
5,GUGCUCAUUCACGUGCGCGUGAAAGAGAGAAGUGAACCAGAGAAACACACGUUGUGGUAUAUUACCUGGUA,0.321
6,GUUCUCUUUCACGUGCGCGUGAAAGAGAGAAGUGAACCUGAGAAACACACGUUGUGGUAUAUUACCUGGUA,0.253
7,GUUCUCUUUCACGUGCGCGUGAAAGAGAGAAGUGAACCCGAGAAACACACGUUGUGGUAUAUUACCUGGUA,0.199
8,GUUCUCUUUCACGUGCGCGUGAAAGAGAGAAGUGAACCGGAGAAACACACGUUGUGGUAUAUUACCUGGUA,0.122
9,GUGCUCUUUCACGGGCGCGUGAAAGAGAGAAGUGAACCAGAGAAACACACGUUGUGGUAUAUUACCUGGUA,0.145
10,GUUCUCUUUCACGUGCGCGUGACAGAGAGAAGUGAACCAGAGAAACACACGUUGUGGUAUAUUACCUGGUA,0.408
11,GUGCUCUUUCACGUGCGCGUGAAAGAGAGAAGUGAACCAGAGAAACACACGUUGUGGUAUAUUACCUGGAA,0.252
12,GUUCUCUUUCACGUGCGCGUGAAAGAGAGACGUGAACCAGAGAAACACACGUUGUGGUAUAUUACCUGGUA,0.267
13,GUUCUCUUUCACGUGCGCGUGAAAGAGAGAGGUGAACCAGAGAAACACACGUUGUGGUAUAUUACCUGGUA,0.296
14,GUGCUCUUUCACGUGCGCGUGAAAGAGAGAAGUGAACCAGAGAAACACACGUUGUGGUAUAUUACCCGGUA,0.104
15,GUGCUCUUUCACGUGCGCGUGAAAGAGAGAAGUGAACCAGAGAAACACACGUUGUGGUAUAUUACCGGGUA,0.102
16,GUGCUCUUUCAUGUGCGCGUGAAAGAGAGAAGUGAACCAGAGAAACACACGUUGUGGUAUAUUACCUGGUA,0.26
17,GUGCUCUUUCAAGUGCGCGUGAAAGAGAGAAGUGAACCAGAGAAACACACGUUGUGGUAUAUUACCUGGUA,0.254
18,GUGCUCUUUCACGUGCGCGUGAAAGAGAGAAGUGAACCAGAGAAACACACGUUGUGGUAUAUCACCUGGUA,0.164
19,GUGCUCUUUCACGUGCGCGUGAAAGAGAGAAGUGAACCAGAGAAACACAGGUUGUGGUAUAUUACCUGGUA,0.127
20,GUUAUCUUUCACGUGCGCGUGAAAGAGAGAAGUGAACCAGAGAAACACACGUUGUGGUAUAUUACCUGGUA,0.0854
21,GUUUUCUUUCACGUGCGCGUGAAAGAGAGAAGUGAACCAGAGAAACACACGUUGUGGUAUAUUACCUGGUA,0.39
22,GUGCUCUUUCACGUGCGCGUGAAAGAAAGAAGUGAACCAGAGAAACACACGUUGUGGUAUAUUACCUGGUA,0.266
23,GUGCUCUUUCACGUGCGCGUGAAAGACAGAAGUGAACCAGAGAAACACACGUUGUGGUAUAUUACCUGGUA,0.0838
24,GUGCUCUUUCACGUGCGCGUGAAAGAGAGAAGUGAAACAGAGAAACACACGUUGUGGUAUAUUACCUGGUA,0.162
25,GUUCUCUUUCACGUGCGCGUGAAAGAGAGAAGUGAACCAGAGAAUCACACGUUGUGGUAUAUUACCUGGUA,0.159
26,GUGCUCUUUCACGUGCGCAUGAAAGAGAGAAGUGAACCAGAGAAACACACGUUGUGGUAUAUUACCUGGUA,0.2

row,Variant,self-cleavage
1,GUGCUCUUUCACGUGCGCUUGAAAGAGAGAAGUGAACCAGAGAAACACACGUUGUGGUAUAUUACCUGGUA,0.26
2,GUGCUCUUUCACGUGCGCCUGAAAGAGAGAAGUGAACCAGAGAAACACACGUUGUGGUAUAUUACCUGGUA,0.229
3,GUGCUCUUUCACGUGCGCGUGAAAGAGAGAAGUGAACCAGAGAAACAAACGUUGUGGUAUAUUACCUGGUA,0.0662
4,GUGCUCUUUCACGUGCGCGUGAAAGAGAGAAGUGAACCAGAGAAACAGACGUUGUGGUAUAUUACCUGGUA,0.196
5,GUGCUCUUUGACGUGCGCGUGAAAGAGAGAAGUGAACCAGAGAAACACACGUUGUGGUAUAUUACCUGGUA,0.182
6,GUGCUCUUUCACGUGCGCGUGAAAGAGAGAAGUGAACCAGAGAAACACACGUUGUGGUACAUUACCUGGUA,0.314
7,GUGCUCUUUCACGUGCGCGUGAAAGAGAGAAGUGAACCAGAGAAACACACGUUGUGGUAUAUUAUCUGGUA,0.0576
8,GUGCUCUUUCACGUGCGCGUGAAAGAGAGAAGUGAACCAGAGAAACACACGUUGUGGUAUAUUAACUGGUA,0.263
9,GUUCUCUUUCACGUGCGCGUGAAAGAGAGGAGUGAACCAGAGAAACACACGUUGUGGUAUAUUACCUGGUA,0.104
10,GUUCUCUUUCACGUGCGCGUGAAAGAGAGUAGUGAACCAGAGAAACACACGUUGUGGUAUAUUACCUGGUA,0.0886
11,GUUCUCUUUCACGUGCGCGUGAAAGAGAGAAGUGAACCAGAGAAACACACGUUGUGGUAUGUUACCUGGUA,0.117
12,GUUCUCUUUCACGUGCGCGUGAAAGAGAGAAGUGAACCAGAGAAACACACGUUGUGGUAUCUUACCUGGUA,0.164
13,GUUCUCUUUCACGUGCGCGUGAAAGAGAGAAGUGAACCAGAGAAACACACGUUGUGGUAUUUUACCUGGUA,0.227
14,GUUCUCUUUCACGUGCGCGUGAAAGAGAGAAGUGAACCAGAGAAACACACGUUGUGGUGUAUUACCUGGUA,0.0802
15,GUGCUCUUUCACGUGCGCGUAAAAGAGAGAAGUGAACCAGAGAAACACACGUUGUGGUAUAUUACCUGGUA,0.173
16,GUGCUCUUUCACGUGCGCGUCAAAGAGAGAAGUGAACCAGAGAAACACACGUUGUGGUAUAUUACCUGGUA,0.154
17,GUUCUCUUUCACGUGCGCGUGAAAGAGAGAAGUGAACCAGAGACACACACGUUGUGGUAUAUUACCUGGUA,0.0442
18,GUGCUCUUUCACGUGCCCGUGAAAGAGAGAAGUGAACCAGAGAAACACACGUUGUGGUAUAUUACCUGGUA,0.198
19,GUUCUCUUUCACGUGCGCGUGAAAGAGAGAAGUGAACCAGAGAAACACACGUUGUGGUAUAUUGCCUGGUA,0.212
20,GUGCUCUUUCACGUGCGCGUGAAAGAGAGAAGUGAACCAGAGAAACACACGUUGUGGUAUAUUACCUGCUA,0.177
21,GUGCUCUUUCACGUGCGCGUGAAAGAGAGAAGUGAACCAGAGAAACACACGUUGUGGUAUAUUACGUGGUA,0.0857
22,GUGCUAUUUCACGUGCGCGUGAAAGAGAGAAGUGAACCAGAGAAACACACGUUGUGGUAUAUUACCUGGUA,0.267
23,GUGCUCUUUCACGUGCGCGUGAAAGAGAGAAGUAAACCAGAGAAACACACGUUGUGGUAUAUUACCUGGUA,0.27
24,GUGCUCUUUCACGUGCGCGUGAAAGAGAGAAGUUAACCAGAGAAACACACGUUGUGGUAUAUUACCUGGUA,1.01
